Experimental data taken from publication PMC10786891, “Massively parallel profiling of RNA-targeting CRISPR-Cas13d”.

T1: EsCas13d, nuclease-dead (Eubacterium siraeum, UniProt B0MS50, R295A;H300A;R849A;H854A)
T1 sequence: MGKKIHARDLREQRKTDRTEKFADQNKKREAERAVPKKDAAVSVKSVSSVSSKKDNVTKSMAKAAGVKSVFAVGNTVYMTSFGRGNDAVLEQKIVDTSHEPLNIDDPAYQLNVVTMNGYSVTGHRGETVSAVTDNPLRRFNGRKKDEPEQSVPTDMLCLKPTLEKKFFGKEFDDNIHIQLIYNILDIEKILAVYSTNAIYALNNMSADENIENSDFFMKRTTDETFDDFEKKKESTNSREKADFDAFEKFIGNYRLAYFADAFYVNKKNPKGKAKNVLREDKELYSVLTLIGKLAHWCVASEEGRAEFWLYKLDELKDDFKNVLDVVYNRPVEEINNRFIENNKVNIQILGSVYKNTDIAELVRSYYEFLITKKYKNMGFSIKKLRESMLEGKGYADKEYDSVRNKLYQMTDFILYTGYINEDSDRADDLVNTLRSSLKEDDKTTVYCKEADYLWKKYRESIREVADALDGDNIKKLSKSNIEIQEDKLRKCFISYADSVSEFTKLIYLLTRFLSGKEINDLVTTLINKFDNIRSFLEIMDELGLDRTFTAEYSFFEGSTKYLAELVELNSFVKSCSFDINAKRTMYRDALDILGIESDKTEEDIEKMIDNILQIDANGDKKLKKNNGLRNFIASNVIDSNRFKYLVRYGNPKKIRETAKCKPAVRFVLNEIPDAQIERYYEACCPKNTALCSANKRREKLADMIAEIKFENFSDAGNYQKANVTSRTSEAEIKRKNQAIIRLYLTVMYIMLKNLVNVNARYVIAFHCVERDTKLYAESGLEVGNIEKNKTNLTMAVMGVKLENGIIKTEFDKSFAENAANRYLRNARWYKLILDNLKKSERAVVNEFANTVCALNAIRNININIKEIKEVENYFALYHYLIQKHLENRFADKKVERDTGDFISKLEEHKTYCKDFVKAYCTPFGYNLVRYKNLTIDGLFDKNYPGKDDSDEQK

B1: target 1 C6U,G12A (mixed)
RNA 1: CACCCGUGCAAAAAUGCAGGGGUCUAAAACUGAGCGGAUAACCUCUCUAUGG
RNA 2: GGGAAUGGAUCCACAUCUACGAAUUCGUACCAUAGAGAGAUUAUCUGCUCACCGAGAUCGGAAGAGCACACGU
B2: target 1 del7,del19 (mixed)
RNA 1: CACCCGUGCAAAAAUGCAGGGGUCUAAAACUGAGCGGAUAACCUCUCUAUGG
RNA 2: GGGAAUGGAUCCACAUCUACGAAUUCGUACCAAGAGAGGUUAUCGCUCACCGAGAUCGGAAGAGCACACGU
B3: target 1 U3G,G17U (mixed)
RNA 1: CACCCGUGCAAAAAUGCAGGGGUCUAAAACUGAGCGGAUAACCUCUCUAUGG
RNA 2: GGGAAUGGAUCCACAUCUACGAAUUCGUACCAUAUAGAGGUUAUCCGCGCACCGAGAUCGGAAGAGCACACGU
B4: target 1 G5U,A16U (mixed)
RNA 1: CACCCGUGCAAAAAUGCAGGGGUCUAAAACUGAGCGGAUAACCUCUCUAUGG
RNA 2: GGGAAUGGAUCCACAUCUACGAAUUCGUACCAUAGUGAGGUUAUCCUCUCACCGAGAUCGGAAGAGCACACGU
B5: target 1 insC 3' of 19,insC 3' of 8 (mixed)
RNA 1: CACCCGUGCAAAAAUGCAGGGGUCUAAAACUGAGCGGAUAACCUCUCUAUGG
RNA 2: GGGAAUGGAUCCACAUCUACGAAUUCGUACCAUCAGAGAGGUUAUCCCGCUCACCGAGAUCGGAAGAGCACACGU
B6: target 1 insG 3' of 18,insC 3' of 17 (mixed)
RNA 1: CACCCGUGCAAAAAUGCAGGGGUCUAAAACUGAGCGGAUAACCUCUCUAUGG
RNA 2: GGGAAUGGAUCCACAUCUACGAAUUCGUACCAUAGGCAGAGGUUAUCCGCUCACCGAGAUCGGAAGAGCACACGU
B7: target 1 U3A,U10C (mixed)
RNA 1: CACCCGUGCAAAAAUGCAGGGGUCUAAAACUGAGCGGAUAACCUCUCUAUGG
RNA 2: GGGAAUGGAUCCACAUCUACGAAUUCGUACCAUAGAGAGGUCAUCCGCACACCGAGAUCGGAAGAGCACACGU
B8: target 1 insA 3' of 19,insA 3' of 5 (mixed)
RNA 1: CACCCGUGCAAAAAUGCAGGGGUCUAAAACUGAGCGGAUAACCUCUCUAUGG
RNA 2: GGGAAUGGAUCCACAUCUACGAAUUCGUACCAUAAGAGAGGUUAUCCGACUCACCGAGAUCGGAAGAGCACACGU
B9: target 1 insC 3' of 10,insA 3' of 7 (mixed)
RNA 1: CACCCGUGCAAAAAUGCAGGGGUCUAAAACUGAGCGGAUAACCUCUCUAUGG
RNA 2: GGGAAUGGAUCCACAUCUACGAAUUCGUACCAUAGAGAGGUUCAUCACGCUCACCGAGAUCGGAAGAGCACACGU
B10: target 1 insG 3' of 22,insC 3' of 8 (mixed)
RNA 1: CACCCGUGCAAAAAUGCAGGGGUCUAAAACUGAGCGGAUAACCUCUCUAUGG
RNA 2: GGGAAUGGAUCCACAUCUACGAAUUCGUACGCAUAGAGAGGUUAUCCCGCUCACCGAGAUCGGAAGAGCACACGU
B11: target 1 insA 3' of 12,insA 3' of 8 (mixed)
RNA 1: CACCCGUGCAAAAAUGCAGGGGUCUAAAACUGAGCGGAUAACCUCUCUAUGG
RNA 2: GGGAAUGGAUCCACAUCUACGAAUUCGUACCAUAGAGAGGAUUAUACCGCUCACCGAGAUCGGAAGAGCACACGU
B12: target 1 insC 3' of 11,insG 3' of 4 (mixed)
RNA 1: CACCCGUGCAAAAAUGCAGGGGUCUAAAACUGAGCGGAUAACCUCUCUAUGG
RNA 2: GGGAAUGGAUCCACAUCUACGAAUUCGUACCAUAGAGAGGUCUAUCCGCGUCACCGAGAUCGGAAGAGCACACGU
B13: target 1 insG 3' of 19,insU 3' of 5 (mixed)
RNA 1: CACCCGUGCAAAAAUGCAGGGGUCUAAAACUGAGCGGAUAACCUCUCUAUGG
RNA 2: GGGAAUGGAUCCACAUCUACGAAUUCGUACCAUGAGAGAGGUUAUCCGUCUCACCGAGAUCGGAAGAGCACACGU
B14: target 1 C7G,C22A (mixed)
RNA 1: CACCCGUGCAAAAAUGCAGGGGUCUAAAACUGAGCGGAUAACCUCUCUAUGG
RNA 2: GGGAAUGGAUCCACAUCUACGAAUUCGUAACAUAGAGAGGUUAUGCGCUCACCGAGAUCGGAAGAGCACACGU
B15: target 1 insU 3' of 22,insA 3' of 11 (mixed)
RNA 1: CACCCGUGCAAAAAUGCAGGGGUCUAAAACUGAGCGGAUAACCUCUCUAUGG
RNA 2: GGGAAUGGAUCCACAUCUACGAAUUCGUACUCAUAGAGAGGUAUAUCCGCUCACCGAGAUCGGAAGAGCACACGU
B16: target 1 insU 3' of 18,insC 3' of 12 (mixed)
RNA 1: CACCCGUGCAAAAAUGCAGGGGUCUAAAACUGAGCGGAUAACCUCUCUAUGG
RNA 2: GGGAAUGGAUCCACAUCUACGAAUUCGUACCAUAUGAGAGGCUUAUCCGCUCACCGAGAUCGGAAGAGCACACGU
B17: target 1 insA 3' of 15,insA 3' of 11 (mixed)
RNA 1: CACCCGUGCAAAAAUGCAGGGGUCUAAAACUGAGCGGAUAACCUCUCUAUGG
RNA 2: GGGAAUGGAUCCACAUCUACGAAUUCGUACCAUAGAGAAGGUAUAUCCGCUCACCGAGAUCGGAAGAGCACACGU
B18: target 1 insC 3' of 15,insG 3' of 14 (mixed)
RNA 1: CACCCGUGCAAAAAUGCAGGGGUCUAAAACUGAGCGGAUAACCUCUCUAUGG
RNA 2: GGGAAUGGAUCCACAUCUACGAAUUCGUACCAUAGAGCAGGGUUAUCCGCUCACCGAGAUCGGAAGAGCACACGU
B19: target 1 del17,del18 (mixed)
RNA 1: CACCCGUGCAAAAAUGCAGGGGUCUAAAACUGAGCGGAUAACCUCUCUAUGG
RNA 2: GGGAAUGGAUCCACAUCUACGAAUUCGUACCAUAGAGGUUAUCCGCUCACCGAGAUCGGAAGAGCACACGU
B20: target 1 U10C,C21U (mixed)
RNA 1: CACCCGUGCAAAAAUGCAGGGGUCUAAAACUGAGCGGAUAACCUCUCUAUGG
RNA 2: GGGAAUGGAUCCACAUCUACGAAUUCGUACUAUAGAGAGGUCAUCCGCUCACCGAGAUCGGAAGAGCACACGU
B21: target 1 insG 3' of 20,insA 3' of 13 (mixed)
RNA 1: CACCCGUGCAAAAAUGCAGGGGUCUAAAACUGAGCGGAUAACCUCUCUAUGG
RNA 2: GGGAAUGGAUCCACAUCUACGAAUUCGUACCAGUAGAGAGAGUUAUCCGCUCACCGAGAUCGGAAGAGCACACGU
B22: target 1 insC 3' of 22,insG 3' of 9 (mixed)
RNA 1: CACCCGUGCAAAAAUGCAGGGGUCUAAAACUGAGCGGAUAACCUCUCUAUGG
RNA 2: GGGAAUGGAUCCACAUCUACGAAUUCGUACCCAUAGAGAGGUUAGUCCGCUCACCGAGAUCGGAAGAGCACACGU
B23: target 1 C6G,C21A (mixed)
RNA 1: CACCCGUGCAAAAAUGCAGGGGUCUAAAACUGAGCGGAUAACCUCUCUAUGG
RNA 2: GGGAAUGGAUCCACAUCUACGAAUUCGUACAAUAGAGAGGUUAUCGGCUCACCGAGAUCGGAAGAGCACACGU
B24: target 1 U3A,C21U (mixed)
RNA 1: CACCCGUGCAAAAAUGCAGGGGUCUAAAACUGAGCGGAUAACCUCUCUAUGG
RNA 2: GGGAAUGGAUCCACAUCUACGAAUUCGUACUAUAGAGAGGUUAUCCGCACACCGAGAUCGGAAGAGCACACGU

Each binder was assayed against T1, EsCas13d, nuclease-dead (assay: crRNA (strand 1, pre-loaded); Mg2+; 40 mM Tris-HCl pH 7.5, 150 mM NaCl, 6 mM MgCl2, 1 mM DTT, 0.1% Tween-20, 0.2 mg/ml BSA; 25 C; 10 min per concentration, then washed). Conditions: tags: His6-TwinStrep-SUMO cleaved; N-terminal SNAP kept (SNAP-Surface 488); label: 3' end held by stalled T7 RNA polymerase.
B1 was tested, and the Kd was 11.1 ± 0.5 nM.
B2 showed a Kd of 52 ± 6 nM.
In the case of B3, the Kd is reported as 20.8 ± 1.6 nM.
B4 showed a Kd of 66 ± 10 nM.
Work on B5 yielded a Kd of 52 ± 5 nM.
Work on B6 yielded a Kd of 89 ± 32 nM.
With B7 the Kd was 19.7 ± 2 nM.
B8 was tested, and the Kd was 16 ± 1.2 nM.
With B9 the Kd was 11.2 ± 0.6 nM.
B10 was tested, and the Kd was ~90 nM.
For B11, the Kd was 37 ± 3.3 nM.
B12 showed a Kd of 22.7 ± 1.2 nM.
Binder B13 has a Kd of 86 ± 18 nM.
B14 showed a Kd of 14.2 ± 0.6 nM.
Work on B15 yielded a Kd of 66 ± 15 nM.
B16 gave a Kd of ~90 nM.
With B17 the Kd was 14.8 ± 0.8 nM.
Work on B18 yielded a Kd of 22.7 ± 1.8 nM.
With B19 the Kd was 13.9 ± 1.6 nM.
In the case of B20, the Kd is reported as 8.5 ± 0.4 nM.
B21 gave a Kd of 32 ± 8 nM.
For B22, the Kd was 33 ± 16 nM.
With B23 the Kd was 24.3 ± 1.5 nM.
B24 showed a Kd of 19 ± 6 nM.
